Assay results from patent US20220233638A1.

Biological target: canine LILRB3 (ENSCAFG00000028453) on normal MDCK cells (dog)
Experiment: cell-based or functional assay

Sequence of canine LILRB3 (ENSCAFG00000028453) on normal MDCK cells (dog) (chain, as listed by the source limits assumed, form in doubt): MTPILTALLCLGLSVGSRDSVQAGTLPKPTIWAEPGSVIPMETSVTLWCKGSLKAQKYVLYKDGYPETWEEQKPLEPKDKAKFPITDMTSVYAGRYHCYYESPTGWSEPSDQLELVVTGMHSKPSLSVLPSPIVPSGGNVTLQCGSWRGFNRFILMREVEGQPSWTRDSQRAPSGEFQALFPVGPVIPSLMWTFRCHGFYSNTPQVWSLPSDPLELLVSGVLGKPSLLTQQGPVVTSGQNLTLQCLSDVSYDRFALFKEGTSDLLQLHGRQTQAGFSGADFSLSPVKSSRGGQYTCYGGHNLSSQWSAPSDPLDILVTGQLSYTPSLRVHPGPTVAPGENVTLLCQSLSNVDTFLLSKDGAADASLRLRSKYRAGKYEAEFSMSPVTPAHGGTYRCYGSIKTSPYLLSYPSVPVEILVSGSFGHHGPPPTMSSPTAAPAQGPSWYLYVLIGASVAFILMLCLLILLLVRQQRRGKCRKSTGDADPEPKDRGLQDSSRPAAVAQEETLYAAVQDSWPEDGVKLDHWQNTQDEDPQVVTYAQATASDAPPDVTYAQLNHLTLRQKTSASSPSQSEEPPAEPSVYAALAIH

recombinant protein DLA88-α3 (from UniProt P18466 207-299) (ligand)
residual rate of SCRB^KD (Scribble knockdown) MDCK cells in mixed culture with normal MDCK cells, 24 hr: 20%
